From US20240132578A1 come the findings set out here.

What all share (assay): cell-based or functional assay
Test [1] has as its target HIV-1 APV-6 envelope (Env) on pseudovirus (HIV-1).
Test [2] has as its target HIV-1 envelope glycoprotein (Env) of isolate MGRM-C-006 (HIV-1).
The target in test [3] is HIV-1 Env of isolate 92RW008 (clade A pseudovirus) (HIV-1).
Test [4] addresses HIV-1 MGRM-AG-001 Env (pseudovirus) (HIV-1).
In test [5] the target is HIV-1 Env of isolate THR0.18 (Acute), clade B (HIV-1).
Test [6] deals with HIV-1 MGRM-AE-006 Env (pseudovirus) (HIV-1).
Test [7] deals with HIV-1 94UG103 envelope (Env) on pseudovirus (HIV-1).
Test [8] deals with HIV-1 Env of isolate MGRM-D-021 (clade D pseudovirus) (HIV-1).
The target in test [9] is HIV-1 MGRM-AG-011 Env (pseudovirus) (HIV-1).
Test [10] addresses HIV-1 Env of isolate JRCSF (Clade B) (HIV-1) (UniProt P20871).
For test [11], the target named is HIV-1 Env of isolate CAAN.A2 (Acute), clade B (HIV-1).
The target of test [12] is HIV-1 93UG077 envelope (Env) on pseudovirus (HIV-1).
In test [13] the target is HIV-1 envelope glycoprotein (Env) of isolate MGRM-C-009 (HIV-1).
Test [14] has as its target HIV-1 92RW020 envelope (Env) on pseudovirus (HIV-1).
The target in test [15] is HIV-1 Env of isolate 94UG103 (clade A pseudovirus) (HIV-1).

Consider 2F5 (antibody), for which the neutralization IC50 in [1] stood at 0.1 µg/mL; in test [7], 3.79 µg/mL; in test [12], 4.45 µg/mL; in test [14] it was 3.37 µg/mL. The IC50 (µg/ml), pseudovirus neutralization in [2] was over 50 µg/mL; in [3], 10.4 µg/mL; in [4], 0.75 µg/mL; in test [5], over 50 µg/mL; in test [6], 0.18 µg/mL; in test [9], over 50 µg/mL. For the same substance, the IC50 (µg/ml), pseudovirus neutralization in test [11] was 23.1 µg/mL; in test [13] it was over 50 µg/mL; in test [15] it was 1.92 µg/mL. For the same substance, the IC50, pseudovirus neutralization in test [8] was over 50 µg/mL. Also, in [10], the IC90 (neutralization of pseudovirus) was determined as 25.3 µg/mL.
On to 2G12 (antibody), for which the neutralization IC50 in test [1] is 5.3 µg/mL; in [7], over 50 µg/mL; in test [12] it was over 50 µg/mL; in [14], 0.56 µg/mL. Moreover, the IC50 (µg/ml), pseudovirus neutralization is over 50 µg/mL in test [2]; 22.5 µg/mL in test [3]; 0.69 µg/mL in test [4]; over 50 µg/mL in test [5]; over 50 µg/mL in [6]; over 50 µg/mL in test [9]. The figures for the IC50 (µg/ml), pseudovirus neutralization in [11], in test [13] and in test [15] were over 50 µg/mL, over 50 µg/mL and 48.1 µg/mL, respectively. The substance further registered an IC50, pseudovirus neutralization in test [8] of 23 µg/mL. Also, the IC90 (neutralization of pseudovirus) in test [10] was determined as 5.38 µg/mL.
